Measured values reported in US20220023399A1 (CONTRAFECT, published 2022).

Molecular target: T1, human serum albumin (human, UniProt P02768 25-609)
T1 construct: also called HSA; rHSA
Assay: confocal/deconvolution microscopy; S. aureus ATCC 700699 pretreated with HSA 40 mg/mL, CF-301^RHD at 0.25×MIC

T1 sequence (P02768 25-609): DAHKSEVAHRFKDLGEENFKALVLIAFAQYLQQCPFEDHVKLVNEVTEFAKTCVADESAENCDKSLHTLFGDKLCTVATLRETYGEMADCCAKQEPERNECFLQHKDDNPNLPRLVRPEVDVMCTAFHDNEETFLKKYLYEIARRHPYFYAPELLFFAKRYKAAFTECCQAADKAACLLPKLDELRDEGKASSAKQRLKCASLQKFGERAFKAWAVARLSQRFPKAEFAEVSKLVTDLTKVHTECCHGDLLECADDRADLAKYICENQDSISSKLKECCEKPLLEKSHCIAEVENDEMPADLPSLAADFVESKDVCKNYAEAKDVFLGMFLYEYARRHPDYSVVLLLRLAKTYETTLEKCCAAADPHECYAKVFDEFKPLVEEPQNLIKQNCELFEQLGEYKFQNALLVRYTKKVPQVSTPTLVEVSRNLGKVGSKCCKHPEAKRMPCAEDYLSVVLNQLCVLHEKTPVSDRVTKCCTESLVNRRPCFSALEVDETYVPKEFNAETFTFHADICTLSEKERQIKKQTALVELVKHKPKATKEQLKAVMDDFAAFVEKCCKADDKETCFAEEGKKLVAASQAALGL

B1: rhodamine-labeled PlySs2 (CF-301) (enzyme)
chain: MTTVNEALNNVRAQVGSGVSVGNGECYALASWYERMISPDATVGLGAGVGWVSGAIGDTISAKNIGSSYNWQANGWTVSTSGPFKAGQIVTLGATPGNPYGHVVIVEAVDGDRLTILEQNYGGKRYPVRNYYSAASYRQQVVHYITPPGTVAQSAPNLAGSRSYRETGTMTVTVDALNVRRAPNTSGEIVAVYKRGESFDYDTVIIDVNGYVWVSYIGGSGKRNYVATGATKDGKRFGNAWGTFK
notes: also called CF-301^RHD; CF-301^RHOD
binding result: binds
